{"source": "patent US20050181456A1", "about": "“Methods for determining the amount of peptide YY in blood” (Nastech Pharmaceutical Company Inc., priority 2004, published 2005)", "origin": "cited, not measured here", "molecular_target": "T1, Y2 receptor (Homo sapiens, UniProt P49146)", "T1 sequence (P49146 1-381)": "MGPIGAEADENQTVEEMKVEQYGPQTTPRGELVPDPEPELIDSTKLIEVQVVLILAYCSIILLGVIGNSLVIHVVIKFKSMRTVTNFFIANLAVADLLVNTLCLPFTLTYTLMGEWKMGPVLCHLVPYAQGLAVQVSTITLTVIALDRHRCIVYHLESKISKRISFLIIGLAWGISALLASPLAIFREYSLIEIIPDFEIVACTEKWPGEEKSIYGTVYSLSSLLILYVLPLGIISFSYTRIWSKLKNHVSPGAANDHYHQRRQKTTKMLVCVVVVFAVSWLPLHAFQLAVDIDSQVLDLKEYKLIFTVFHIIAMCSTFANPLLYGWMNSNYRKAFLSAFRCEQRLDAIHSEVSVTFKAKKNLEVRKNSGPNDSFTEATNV", "settings": "cited from earlier work", "data": [{"substance": "PYY fragment having only residues 22-36: PYY fragment having only residues 22-36 (ASLRHYLNLVTRQRY; listed as Homo sapiens)", "values": [{"measurement": "binding to the Y2 receptor", "value": "will still bind"}]}]}
